Source: patent US20210032299A1
Starred links: 1 amine or outer side, 2 acyl side, 3 side chain; linkers in the order of their positions; H or OH if unused. Non-standard residues stand in square brackets, D forms with d. Groups on a side chain read outwards from the residue. No end group written: not given here. *: point of attachment. C20 diacid = O=C(O)CCCCCCCCCCCCCCCCCCC(=O)*; C18 diacid = O=C(O)CCCCCCCCCCCCCCCCC(=O)*; γGlu = O=C(O)[C@H](CCC(=O)[*:2])N[*:1]; αMeL = CC(C)C[C@](C)(N)C(=O)O; Orn = NCCC[C@H](N)C(=O)O; AEEA = NCCOCCOCC(=O)O; Aib = CC(C)(N)C(=O)O

T1: human glucose-dependent insulinotropic polypeptide (GIP) receptor (human), P48546
T1 chain: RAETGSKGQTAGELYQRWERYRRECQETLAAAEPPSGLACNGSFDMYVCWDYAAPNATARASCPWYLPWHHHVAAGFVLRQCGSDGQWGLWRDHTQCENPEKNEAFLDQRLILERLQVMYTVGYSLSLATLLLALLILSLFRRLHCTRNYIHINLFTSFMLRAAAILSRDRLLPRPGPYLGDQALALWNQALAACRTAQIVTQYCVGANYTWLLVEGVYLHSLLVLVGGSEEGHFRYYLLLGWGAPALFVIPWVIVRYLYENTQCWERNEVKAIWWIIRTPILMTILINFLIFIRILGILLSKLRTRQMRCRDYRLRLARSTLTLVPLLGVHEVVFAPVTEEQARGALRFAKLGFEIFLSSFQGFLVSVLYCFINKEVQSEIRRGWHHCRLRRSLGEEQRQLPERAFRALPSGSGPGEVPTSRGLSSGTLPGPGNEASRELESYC

B1: Example 105 (peptide)
peptide: Y[Aib]EGTFISDYSI[αMeL]LD[Orn]IHQ[Aib]EFVEYK([AEEA-AEEA-γGlu-C20 diacid])LETGPSSGAPPPS-NH2
modifications: N-terminus assumed
SMILES: CC[C@H](C)[C@H](NC(=O)[C@H](CCCN)NC(=O)[C@H](CC(=O)O)NC(=O)[C@H](CC(C)C)NC(=O)[C@](C)(CC(C)C)NC(=O)[C@@H](NC(=O)[C@H](CO)NC(=O)[C@H](Cc1ccc(O)cc1)NC(=O)[C@H](CC(=O)O)NC(=O)[C@H](CO)NC(=O)[C@@H](NC(=O)[C@H](Cc1ccccc1)NC(=O)[C@@H](NC(=O)CNC(=O)[C@H](CCC(=O)O)NC(=O)C(C)(C)NC(=O)[C@@H](N)Cc1ccc(O)cc1)[C@@H](C)O)[C@@H](C)CC)[C@@H](C)CC)C(=O)N[C@@H](Cc1c[nH]cn1)C(=O)N[C@@H](CCC(N)=O)C(=O)NC(C)(C)C(=O)N[C@@H](CCC(=O)O)C(=O)N[C@@H](Cc1ccccc1)C(=O)N[C@H](C(=O)N[C@@H](CCC(=O)O)C(=O)N[C@@H](Cc1ccc(O)cc1)C(=O)N[C@@H](CCCCNC(=O)COCCOCCNC(=O)COCCOCCNC(=O)CC[C@H](NC(=O)CCCCCCCCCCCCCCCCCCC(=O)O)C(=O)O)C(=O)N[C@@H](CC(C)C)C(=O)N[C@@H](CCC(=O)O)C(=O)N[C@H](C(=O)NCC(=O)N1CCC[C@H]1C(=O)N[C@@H](CO)C(=O)N[C@@H](CO)C(=O)NCC(=O)N[C@@H](C)C(=O)N1CCC[C@H]1C(=O)N1CCC[C@H]1C(=O)N1CCC[C@H]1C(=O)N[C@@H](CO)C(N)=O)[C@@H](C)O)C(C)C
B2: Example 103 (peptide)
peptide: Y[Aib]EGTFISDYSI[αMeL]LD[Orn]IHQ[Aib]DFVEYK([AEEA-AEEA-γGlu-C18 diacid])LEGGPSSGAPPPS-NH2
modifications: N-terminus assumed
SMILES: CC[C@H](C)[C@H](NC(=O)[C@H](CCCN)NC(=O)[C@H](CC(=O)O)NC(=O)[C@H](CC(C)C)NC(=O)[C@](C)(CC(C)C)NC(=O)[C@@H](NC(=O)[C@H](CO)NC(=O)[C@H](Cc1ccc(O)cc1)NC(=O)[C@H](CC(=O)O)NC(=O)[C@H](CO)NC(=O)[C@@H](NC(=O)[C@H](Cc1ccccc1)NC(=O)[C@@H](NC(=O)CNC(=O)[C@H](CCC(=O)O)NC(=O)C(C)(C)NC(=O)[C@@H](N)Cc1ccc(O)cc1)[C@@H](C)O)[C@@H](C)CC)[C@@H](C)CC)C(=O)N[C@@H](Cc1c[nH]cn1)C(=O)N[C@@H](CCC(N)=O)C(=O)NC(C)(C)C(=O)N[C@@H](CC(=O)O)C(=O)N[C@@H](Cc1ccccc1)C(=O)N[C@H](C(=O)N[C@@H](CCC(=O)O)C(=O)N[C@@H](Cc1ccc(O)cc1)C(=O)N[C@@H](CCCCNC(=O)COCCOCCNC(=O)COCCOCCNC(=O)CC[C@H](NC(=O)CCCCCCCCCCCCCCCCC(=O)O)C(=O)O)C(=O)N[C@@H](CC(C)C)C(=O)N[C@@H](CCC(=O)O)C(=O)NCC(=O)NCC(=O)N1CCC[C@H]1C(=O)N[C@@H](CO)C(=O)N[C@@H](CO)C(=O)NCC(=O)N[C@@H](C)C(=O)N1CCC[C@H]1C(=O)N1CCC[C@H]1C(=O)N1CCC[C@H]1C(=O)N[C@@H](CO)C(N)=O)C(C)C
B3: Example 7 (peptide)
peptide: Y[Aib]EGTFISDYSI[αMeL]LD[Orn]IHQ[Aib]EFV[dE]YK([AEEA-AEEA-γGlu-C18 diacid])LEGGPSSGAPPPS-NH2
modifications: N-terminus assumed
SMILES: CC[C@H](C)[C@H](NC(=O)[C@H](CCCN)NC(=O)[C@H](CC(=O)O)NC(=O)[C@H](CC(C)C)NC(=O)[C@](C)(CC(C)C)NC(=O)[C@@H](NC(=O)[C@H](CO)NC(=O)[C@H](Cc1ccc(O)cc1)NC(=O)[C@H](CC(=O)O)NC(=O)[C@H](CO)NC(=O)[C@@H](NC(=O)[C@H](Cc1ccccc1)NC(=O)[C@@H](NC(=O)CNC(=O)[C@H](CCC(=O)O)NC(=O)C(C)(C)NC(=O)[C@@H](N)Cc1ccc(O)cc1)[C@@H](C)O)[C@@H](C)CC)[C@@H](C)CC)C(=O)N[C@@H](Cc1c[nH]cn1)C(=O)N[C@@H](CCC(N)=O)C(=O)NC(C)(C)C(=O)N[C@@H](CCC(=O)O)C(=O)N[C@@H](Cc1ccccc1)C(=O)N[C@H](C(=O)N[C@H](CCC(=O)O)C(=O)N[C@@H](Cc1ccc(O)cc1)C(=O)N[C@@H](CCCCNC(=O)COCCOCCNC(=O)COCCOCCNC(=O)CC[C@H](NC(=O)CCCCCCCCCCCCCCCCC(=O)O)C(=O)O)C(=O)N[C@@H](CC(C)C)C(=O)N[C@@H](CCC(=O)O)C(=O)NCC(=O)NCC(=O)N1CCC[C@H]1C(=O)N[C@@H](CO)C(=O)N[C@@H](CO)C(=O)NCC(=O)N[C@@H](C)C(=O)N1CCC[C@H]1C(=O)N1CCC[C@H]1C(=O)N1CCC[C@H]1C(=O)N[C@@H](CO)C(N)=O)C(C)C
B4: Example 104 (peptide)
peptide: Y[Aib]EGTFISDYSI[αMeL]LD[Orn]IHQ[Aib]EFVEYK([AEEA-AEEA-γGlu-C20 diacid])LEAGPSSGAPPPS-NH2
modifications: N-terminus assumed
SMILES: CC[C@H](C)[C@H](NC(=O)[C@H](CCCN)NC(=O)[C@H](CC(=O)O)NC(=O)[C@H](CC(C)C)NC(=O)[C@](C)(CC(C)C)NC(=O)[C@@H](NC(=O)[C@H](CO)NC(=O)[C@H](Cc1ccc(O)cc1)NC(=O)[C@H](CC(=O)O)NC(=O)[C@H](CO)NC(=O)[C@@H](NC(=O)[C@H](Cc1ccccc1)NC(=O)[C@@H](NC(=O)CNC(=O)[C@H](CCC(=O)O)NC(=O)C(C)(C)NC(=O)[C@@H](N)Cc1ccc(O)cc1)[C@@H](C)O)[C@@H](C)CC)[C@@H](C)CC)C(=O)N[C@@H](Cc1c[nH]cn1)C(=O)N[C@@H](CCC(N)=O)C(=O)NC(C)(C)C(=O)N[C@@H](CCC(=O)O)C(=O)N[C@@H](Cc1ccccc1)C(=O)N[C@H](C(=O)N[C@@H](CCC(=O)O)C(=O)N[C@@H](Cc1ccc(O)cc1)C(=O)N[C@@H](CCCCNC(=O)COCCOCCNC(=O)COCCOCCNC(=O)CC[C@H](NC(=O)CCCCCCCCCCCCCCCCCCC(=O)O)C(=O)O)C(=O)N[C@@H](CC(C)C)C(=O)N[C@@H](CCC(=O)O)C(=O)N[C@@H](C)C(=O)NCC(=O)N1CCC[C@H]1C(=O)N[C@@H](CO)C(=O)N[C@@H](CO)C(=O)NCC(=O)N[C@@H](C)C(=O)N1CCC[C@H]1C(=O)N1CCC[C@H]1C(=O)N1CCC[C@H]1C(=O)N[C@@H](CO)C(N)=O)C(C)C
B5: Example 102 (peptide)
peptide: Y[Aib]EGTFISDYSI[αMeL]LD[Orn]IHQ[Aib]EFV[dE]YK([AEEA-AEEA-γGlu-C20 diacid])LEGGPSSGAPPPS-NH2
modifications: N-terminus assumed
SMILES: CC[C@H](C)[C@H](NC(=O)[C@H](CCCN)NC(=O)[C@H](CC(=O)O)NC(=O)[C@H](CC(C)C)NC(=O)[C@](C)(CC(C)C)NC(=O)[C@@H](NC(=O)[C@H](CO)NC(=O)[C@H](Cc1ccc(O)cc1)NC(=O)[C@H](CC(=O)O)NC(=O)[C@H](CO)NC(=O)[C@@H](NC(=O)[C@H](Cc1ccccc1)NC(=O)[C@@H](NC(=O)CNC(=O)[C@H](CCC(=O)O)NC(=O)C(C)(C)NC(=O)[C@@H](N)Cc1ccc(O)cc1)[C@@H](C)O)[C@@H](C)CC)[C@@H](C)CC)C(=O)N[C@@H](Cc1c[nH]cn1)C(=O)N[C@@H](CCC(N)=O)C(=O)NC(C)(C)C(=O)N[C@@H](CCC(=O)O)C(=O)N[C@@H](Cc1ccccc1)C(=O)N[C@H](C(=O)N[C@H](CCC(=O)O)C(=O)N[C@@H](Cc1ccc(O)cc1)C(=O)N[C@@H](CCCCNC(=O)COCCOCCNC(=O)COCCOCCNC(=O)CC[C@H](NC(=O)CCCCCCCCCCCCCCCCCCC(=O)O)C(=O)O)C(=O)N[C@@H](CC(C)C)C(=O)N[C@@H](CCC(=O)O)C(=O)NCC(=O)NCC(=O)N1CCC[C@H]1C(=O)N[C@@H](CO)C(=O)N[C@@H](CO)C(=O)NCC(=O)N[C@@H](C)C(=O)N1CCC[C@H]1C(=O)N1CCC[C@H]1C(=O)N1CCC[C@H]1C(=O)N[C@@H](CO)C(N)=O)C(C)C
B6: Example 96 (peptide)
peptide: Y[Aib]EGTFISDYSIALDKIHQ[Aib]EFVNYK([AEEA-AEEA-γGlu-C20 diacid])LAGGPSSGAPPPS-NH2
modifications: N-terminus assumed
SMILES: CC[C@H](C)[C@H](NC(=O)[C@H](CO)NC(=O)[C@H](Cc1ccc(O)cc1)NC(=O)[C@H](CC(=O)O)NC(=O)[C@H](CO)NC(=O)[C@@H](NC(=O)[C@H](Cc1ccccc1)NC(=O)[C@@H](NC(=O)CNC(=O)[C@H](CCC(=O)O)NC(=O)C(C)(C)NC(=O)[C@@H](N)Cc1ccc(O)cc1)[C@@H](C)O)[C@@H](C)CC)C(=O)N[C@@H](C)C(=O)N[C@@H](CC(C)C)C(=O)N[C@@H](CC(=O)O)C(=O)N[C@@H](CCCCN)C(=O)N[C@H](C(=O)N[C@@H](Cc1c[nH]cn1)C(=O)N[C@@H](CCC(N)=O)C(=O)NC(C)(C)C(=O)N[C@@H](CCC(=O)O)C(=O)N[C@@H](Cc1ccccc1)C(=O)N[C@H](C(=O)N[C@@H](CC(N)=O)C(=O)N[C@@H](Cc1ccc(O)cc1)C(=O)N[C@@H](CCCCNC(=O)COCCOCCNC(=O)COCCOCCNC(=O)CC[C@H](NC(=O)CCCCCCCCCCCCCCCCCCC(=O)O)C(=O)O)C(=O)N[C@@H](CC(C)C)C(=O)N[C@@H](C)C(=O)NCC(=O)NCC(=O)N1CCC[C@H]1C(=O)N[C@@H](CO)C(=O)N[C@@H](CO)C(=O)NCC(=O)N[C@@H](C)C(=O)N1CCC[C@H]1C(=O)N1CCC[C@H]1C(=O)N1CCC[C@H]1C(=O)N[C@@H](CO)C(N)=O)C(C)C)[C@@H](C)CC

Biological target: T1, human glucose-dependent insulinotropic …
Assay: SPA, displacement of [125I]-GIP from hGIPR membranes, 0.1% bacitracin

Row | Binder | Ki
1 | B1 | 174 pM
2 | B2 | 40.5 pM
3 | Y[Aib]EGTFISDYSI[αMeL]LD[Orn]IHQ[Aib]DFV[dE]YK([AEEA-AEEA-γGlu-C20 diacid])LEGGPSSGAPPPS-NH2 [Example 101] | 139 pM
4 | B3 | 193 pM
5 | B4 | 134 pM
6 | B5 | 164 pM
7 | B6 | 232 pM
